Source: US20150315280A1 (Chugai, published 2015)

Biological target: T1, mouse NR 10 (mouse, UniProt Q8K5B1 19-716)
T1 construct: In the proliferation assays it is expressed on Ba/F3 cells together with mouse OSMR, with which it forms the IL-31 receptor; also called mNR 10; IL-31RA
T1 sequence: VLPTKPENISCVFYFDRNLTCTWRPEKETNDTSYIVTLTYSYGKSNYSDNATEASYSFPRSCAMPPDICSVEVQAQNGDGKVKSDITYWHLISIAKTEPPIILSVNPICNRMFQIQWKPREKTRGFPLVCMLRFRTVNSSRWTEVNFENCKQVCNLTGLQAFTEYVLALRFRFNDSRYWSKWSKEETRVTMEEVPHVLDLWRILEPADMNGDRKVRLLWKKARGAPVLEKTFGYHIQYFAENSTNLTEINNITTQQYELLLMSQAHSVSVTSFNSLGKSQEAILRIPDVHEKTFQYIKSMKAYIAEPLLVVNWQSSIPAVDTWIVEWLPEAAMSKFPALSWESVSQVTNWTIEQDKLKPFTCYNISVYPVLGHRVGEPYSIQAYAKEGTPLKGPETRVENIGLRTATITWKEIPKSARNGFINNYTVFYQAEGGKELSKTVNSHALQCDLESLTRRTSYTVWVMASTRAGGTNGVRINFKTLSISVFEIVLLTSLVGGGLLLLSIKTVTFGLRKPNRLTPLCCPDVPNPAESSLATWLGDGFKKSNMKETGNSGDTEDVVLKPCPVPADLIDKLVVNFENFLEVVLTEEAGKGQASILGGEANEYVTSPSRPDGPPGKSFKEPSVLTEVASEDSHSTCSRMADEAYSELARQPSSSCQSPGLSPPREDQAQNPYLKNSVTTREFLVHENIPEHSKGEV
Test: immunohistochemical staining of auricles of chronic dermatitis model mice
From the text: The expression of human NR 10 was reported to be enhanced in thickened epidermis of atopic dermatitis patients (Non-patent Document 1). Auricles of the above-described chronic dermatitis model mice were immunohistochemically stained.

B1: BM095 in which the constant region was replaced with that of human IgG (antibody, V domains shown)
VH: not shown
VL: LPVLTQPPSVSVAPGQTARITCGGNNIGSKTVYWYQQEPGQAPVLVVYDDTDRPAGIPERFSGANSGNTATLTISRVEAGDEADYYCQVWDSSTDHGVFGGGTKLTVLG
**Q.** Does B1 bind?
**A.** binds
